Assay in all cases: filter binding
What all share (conditions): 1 mM MgCl2 in FB buffer; Filter binding: 3 parts FB buffer (50 mM Tris pH 8.0, 1 mM MgCl2) + 1 part SEC buffer (20 mM HEPES pH 7.5, 150 mM NaCl, 1 mM DTT, 10% glycerol), 5 min, room …

In series [1] the test system is Lig4 delta-DBD;XRCC4 (Xenopus laevis;Xenopus laevis?).
Series [2] concerns Lig4 mDBD1;XRCC4 (Xenopus laevis;Xenopus laevis?).
For series [3], the system named is Lig4 mDBD2;XRCC4 (Xenopus laevis;Xenopus laevis?).
Series [4] deals with Lig4 mDBD1+2;XRCC4 (Xenopus laevis;Xenopus laevis?).

In the case of ~1 kb circular DNA, the binding signal (fold weaker than WT) in series [1] came to 30; in series [2], 10; in series [3], 10; in series [4], 30.

Source of the values: publication PMC10858965.
